Laboratory results from patent publication US6506592B1, “Hyperthermophilic alpha-glucosidase gene and its use” (Board of Regents of the University of Nebraska, priority 1998, dated 2003).

B1: recombinant alpha-glucosidase: thermostable alpha-glucosidase of Sulfolobus solfataricus encoded by malA (SEQ ID NO:2), expressed recombinantly in E. coli or transgenic tobacco (protein, listed as Sulfolobus solfataricus)
chain: MQTIKIYENKGVYKVVIGEPFPPIEFPLEQKISSNKSLSELGLTIVQQGNKVIVEKSLDLKEHIIGLGEKAFELDRKRKRYVMYNVDAGAYKKYQDPLYVSIPLFISVKDGVATGYFFNSASKVIFDVGLEEYDKVIVTIPEDSVEFYVIEGPRIEDVLEKYTELTGKPFLPPMWAFGYMISRYSYYPQDKVVELVDIMQKEGFRVAGVFLDIHYMDSYKLFTWHPYRFPEPKKLIDELHKRNVKLITIVDHGIRVDQNYSPFLSGMGKFCEIESGELFVGKMWPGTTVYPDFFREDTREWWAGLISEWLSQGVDGIWLDMNEPTDFSRAIEIRDVLSSLPVQFRDDRLVTTFPDNVVHYLRGKRVKHEKVRNAYPLYEAMATFKGFRTSHRNEIFILSRAGYAGIQRYAFIWTGDNTPSWDDLKLQLQLVLGLSISGVPFVGCDIGGFQGRNFAEIDNSMDLLVKYYALALFFPFYRSHKATDGIDTEPVFLPDYYKEKVKEIVELRYKFLPYIYSLALEASEKGHPVIRPLFYEFQDDDDMYRIEDEYMVGKYLLYAPIVSKEESRLVTLPRGKWYNYWNGEIINGKSVVKSTHELPIYLREGSIIPLEGDELIVYGETSFKRYDNAEITSSSNEIKFSREIYVSKLTITSEKPVSKIIVDDSKEIQVEKTMQNTYVAKINQKIRGKINLE
B2: Beta-glycosidase: S. solfataricus beta-glycosidase (lacS) converting beta-linked disaccharides into glucose, expressed in transgenic tobacco (protein)
chain: MYSFPNSFRFGWSQAGFQSEMGTPGSEDPNTDWYKWVHDPENMAAGLVSGDLPENGPGYWGNYKTFHDNAQKMGLKIARLNVEWSRIFPNPLPRPQNFDESKQDVTEVEINENELKRLDEYANKDALNHYREIFKDLKSRGLYFILNMYHWPLPLWLHDPIRVRRGDFTGPSGWLSTRTVYEFARFSAYIAWKFDDLVDEYSTMNEPNVVGGLGYVGVKSGFPPGYLSFELSRRAMYNIIQAHARAYDGIKSVSKKPVGIIYANSSFQPLTDKDMEAVEMAENDNRWWFFDAIIRGEITRGNEKIVRDDLKGRLDWIGVNYYTRTVVKRTEKGYVSLGGYGHGCERNSVSLAGLPTSDFGWEFFPEGLYDVLTKYWNRYHLYMYVTENGIADDADYQRPYYLVSHVYQVHRAINSGADVRGYLHWSLADNYEWASGFSMRFGLLKVDYNTKRLYWRPSALVYREIATNGAITDEIEHLNSVPPVKPLRH

How the values were obtained:
[1] = maltose hydrolysis, glucose oxidase assay; type: biochemical; conditions: FIG. 4A
Excerpt: (§1) Purification of the recombinant enzyme to apparent homogeneity employed heat fractionation of clarified cell sonicates followed by anion-exchange fast protein liquid chromatography and gel filtration fast protein liquid chromatography as described by Rolfsmeier, et al., 1995. […] Complete denaturation of the recombinant alpha-glucosidase required additional treatment with 6 M guanidine hydrochloride, resulting in exclusive formation of the 80-kDa monomer. Assays for alpha-glucosidase activity with p-nitrophenyl-α-D-glucopyranoside were performed as described by Rolfsmeier, et al., 1995. In enzymatic assays for hydrolysis of maltose and glycogen, release of glucose was monitored with a glucose oxidase assay kit (Sigma) as described by Rolfsmeier, et al., 1995.
(Rolfsmeier et al., 1995).

[2] = conversion of added starch to glucose by concentrated malA tobacco extract at 85° C.; type: biochemical; conditions: 5% starch, extract pre-treated one hour at 85° C., 16 hours
Method: Precipitation of tobacco leaf proteins with (NH4)2 SO4 achieved a 3-fold concentration of the recombinant alpha-glucosidase with a recovery of 100%. Endogenous plant glycolytic activities were eliminated prior to malA assays by heat inactivation (1 hr, […]). Background due to endogenous glucose was removed by dialysis. […] In an attempt to remove this background, concentrated empty vector control extract was pre-incubated for one hour at 85° C., clarified by microcentrifugation and then incubated for 0 or 14 hour at 85° C. in the presence or absence of 5% starch. Without preincubation, background in the presence of starch was very high, at both 0 and at 14 hours, corresponding to 17.8 to 19.2 micrograms of glucose per 100 microliters of assay. Background in the absence of starch was much lower, but apparently more time-dependent, rising from 0.9 to 1.6 micrograms of glucose per 100 microliters in 14 hours (FIG. 7). When the extract was pre-heated before assay, the background in the absence of starch was unchanged, but the background in the presence of starch was then at the same level as the background in the absence of starch without pre-heating (FIG. 7). […]
For measurements of glycosyl hydrolase activities on glucose polymers. […] Aliquots of 100 ul were removed at four hour intervals and glucose was detected with a glucose oxidase glucose detection kit from Sigma.

[3] = glucose release by transgenic plant protein extracts at 80° C.; type: biochemical; conditions: transgenic plant protein extract, incubation at 80° C.
Method: (§2) FIGS. 7A and B show the release of glucose by transgenic glycosyl hydrolases from exogenous and endogenous plant carbohydrates. FIG. 7A. Glucose released by the alpha-glucosidase using an exogenous soluble starch as substrate. A 5% (w/v) solution of soluble starch was incubated at 80° C. with no additions (closed circles), with a protein extract from a plant transformed with an empty vector (open circles) and with a protein extract from transformant MI52E containing the alpha-glucosidase (closed squares). FIG. 7B. Glucose released by glycosyl hydrolases using an endogenous polysaccharide-enriched plant extract as substrate. Protein extracts were: beta-glycosidase (closed squares), alpha-glucosidase (closed circles), and empty vector transformed plant (labeled). Glucose levels were determined using the glucose oxidase assay.
Conversion of plant polysaccharide into free sugar is conventionally done by addition of purified or semipurified hydrolytic enzymes. […] Protein extracts of the alpha-glucosidase transgenic plant MI52E, were prepared and combined with soluble starch. Plant leaves were harvested in the late afternoon, ground in liquid nitrogen with a mortar and pestle in 100 mM phosphate buffer at pH 7.0. […] No significant glucose was detected in reactions containing protein extracts from plants transformed with empty vector and added starch or in reactions containing starch alone. […]

[4] = alpha-glucosidase activity in tobacco leaf extract (alpha-PNPG hydrolysis); type: biochemical
Method: (§3) To obtain tobacco leaf extract for assays, approximately […] of tobacco (five 1.1 cm diameter disk punches) leaves were harvested, rinsed with distilled water, midribs removed and weighed. Leaves were then ground to a powder in liquid nitrogen and ground again with a sterilized pestle. The extracts were then clarified by centrifugation at 14,000 rpm for 10 minutes at room temperature. The resulting supernatant was heat treated for 1 hour at 85° C. and clarified by spinning at 14,000 rpm for 10 minutes at room temperature. The supernatant was collected and assayed for alpha-glucosidase or beta-glycosidase enzyme activity by measuring the hydrolysis of p-nitrophenyl-alpha-glucopyranoside (alpha-PNPG) and p-nitrophenyl-beta-D-glucopyranoside (beta-PNPG), respectively, as previously described (Rolfsmeier, et al., 1998; Haseltine, et al., 1999(a)). Plant tissue extracts for studies on hydrolysis of added defined substrates were prepared using 100 g of tobacco leaves were harvested and grinded to a fine powder in liquid nitrogen. The leaf powder was resuspended in 500 ml of 10 mM tris-Cl pH7.0 to which 10 mM beta-mercaptoethanol has been added. The suspension was then homogenized in a Waring blender. The resulting extract was centrifuged at 5,000 rpm for 30 minutes at 4° C. and the supernatant was further clarified by filtering through three layers of cheesecloth. Plant extracts used for studies on hydrolysis of endogenous polysaccharides as sources of transgenic proteins were prepared using one leaf (medium to large) for each plant which was harvested and ground to a fine powder in liquid nitrogen. The ground leaves were resuspended in 2 volumes of 100 mM sodium phosphate pH 7.0 with 10 mM beta-mercaptoethanol and the tissue was further homogenized in a Waring blender. The resulting extracts were then incubated at 80° C. to activate the recombinant alpha-glucosidase and beta-glycosidase for 48 hours. After incubation, the extracts were clarified by centrifugation by 12,500 rpm for 10 minutes 4° C. Glucose released by glycosyl hydrolase action on endogenous plant carbohydrates was measured using the Glucose Oxidase Assay (Sigma).
Glucosyl hydrolase levels were determined in primary plant transformants using clarified leaf extracts incubated at 80° C. Plants transformed with empty vector lacked detectable thermostable glycosyl hydrolase activity. Activity was measured on fully expanded leaves of plants that had grown in soil for 76 to 164 days. Levels of the beta-glycosidase in young primary transformants was determined in twenty-three independent events. Enzyme levels in ten representative isolates ranged over 12-fold with maximum values of 29 μmoles PNP/min/mg of protein (FIG. 5B).
It has been determined that glycosyl hydrolases retain significant activity in fully mature and preserved leaf tissue. Glycosyl hydrolase specific activities in plant tissues were compared, after freezing or drying, to levels in fresh tissue samples (Table 2). Significant beta-glycosidase activity was retained in leaves harvested and held at −80° C. for 5 days.

[5] = recalcitrance to denaturation in denaturing SDS-PAGE; type: physicochemical; conditions: boiling in 2% (wt/vol) SDS for 10 minutes
Excerpt: as §1

[6] = glycogen hydrolysis, glucose oxidase assay; type: biochemical
Excerpt: as §1
Alpha-glucosidases of mammalian origin are generally distinguished from those of higher plants and eubacteria by their affinities for glycogen as a substrate.

[7] = hydrolysis of p-nitrophenyl-α-D-glucopyranoside by purified recombinant enzyme; type: biochemical; conditions: 85° C., purified recombinant enzyme from E. coli
Method: The production of the recombinant enzymes of this invention were conducted by over expression in E. coli. Assays for alpha-glucosidase activity were performed with para-nitrophenyl-alpha-D-glucopyranoside or methylumbelliferyl-alpha-D-glucoside. Assays for hydrolysis of substrate and detection of glucose were monitored by means known in the art. Purification of the recombinant enzyme to apparent homogeneity employed heat fractionation of clarified cell sonicates followed by anion-exchange fast protein liquid chromatography and gel filtration fast protein liquid chromatography as described in Rolfsmeier, et al.,1995.
Purification of the recombinant enzyme to apparent homogeneity employed heat fractionation of clarified cell sonicates followed by anion-exchange fast protein liquid chromatography and gel filtration fast protein liquid chromatography as described by Rolfsmeier, et al., 1995. […] Complete denaturation of the recombinant alpha-glucosidase required additional treatment with 6 M guanidine hydrochloride, resulting in exclusive formation of the 80-kDa monomer. Assays for alpha-glucosidase activity with p-nitrophenyl-α-D-glucopyranoside were performed as described by Rolfsmeier, et al., 1995. In enzymatic assays for hydrolysis of maltose and glycogen, release of glucose was monitored with a glucose oxidase assay kit (Sigma) as described by Rolfsmeier, et al., 1995. […]

[8] = glucose release from endogenous polysaccharide-enriched tobacco extract at 80° C.; type: biochemical, Nicotiana tabacum; conditions: transgenic protein extract plus polysaccharide-enriched tobacco extract, terminated after 160 hr
Method: as §2
To obtain tobacco leaf extract for assays, approximately […] of tobacco (five 1.1 cm diameter disk punches) leaves were harvested, rinsed with distilled water, midribs removed and weighed. Leaves were then ground to a powder in liquid nitrogen and ground again with a sterilized pestle. […] Glucose released by glycosyl hydrolase action on endogenous plant carbohydrates was measured using the Glucose Oxidase Assay (Sigma).
Levels of liberated glucose were determined as a function of incubation time at 80° C. […]

[9] = beta-glycosidase activity in tobacco leaf extract (beta-PNPG hydrolysis); type: biochemical
Method: as §3, with “Plant extracts used for studies on hydrolysis of endogenous polysaccharides as sources of transgenic proteins were prepared using one leaf (medium to large) for each plant which was harvested and ground to a fine powder in liquid nitrogen. The ground leaves were resuspended in 2 volumes of 100 mM sodium phosphate pH 7.0 with 10 mM beta-mercaptoethanol and the tissue was further homogenized in a Waring blender. The resulting extracts were then incubated at 80° C. to activate the recombinant alpha-glucosidase and beta-glycosidase for 48 hours. After incubation, the extracts were clarified by centrifugation by 12,500 rpm for 10 minutes 4° C.” left out
Glucosyl hydrolase levels were determined in primary plant transformants using clarified leaf extracts incubated at 80° C. […] Activity was measured on fully expanded leaves of plants that had grown in soil for 76 to 164 days. Levels of the beta-glycosidase in young primary transformants was determined in twenty-three independent events. […]
It has been determined that glycosyl hydrolases retain significant activity in fully mature and preserved leaf tissue. […]

[10] = Dried transgenic tobacco leaf tissue
[11] = Fresh transgenic tobacco leaf tissue

Row | Molecule | pH optimum for maltose hydrolysis [1] | net rate of glucose formation (conversion of added starch to glucose) [2] [micrograms per hour] | rate of appearance of glucose [3] [µg/h] | Alpha-glucosidase specific activity in plant tissue [4, 10] [μmoles PNP/hr/mg] | Alpha-glucosidase specific activity in plant tissue [4, 11] [μmoles PNP/hr/mg] | Alpha-glucosidase specific activity in plant tissue ([4]; Frozen transgenic tobacco leaf tissue) [μmoles PNP/hr/mg] | activity more stable when dried, as compared to fresh tissues ([4]; dried vs fresh tobacco tissue) [times] | activity more stable when frozen, as compared to fresh tissues ([4]; frozen vs fresh tobacco tissue) | enzyme that failed to enter the separating gel, migrating in the stacking gel [5] | Km for glycogen ([6]; 85° C.) [mg/mL] | Vmax for glycogen ([6]; 85° C.) | pH optimum for glycogen hydrolysis ([6]; FIG. 4B) | Vmax for p-nitro-phenyl-α-D-glucopyranoside [7] | Km ([7]; read-out: Km for p-nitro-phenyl-α-D-glucopyranoside) [µM] | initial lag before levels of glucose began to increase [8] [h] | Beta-glycosidase specific activity in plant tissue [9, 10] [μmoles PNP/min/mg] | Beta-glycosidase specific activity in plant tissue [9, 11] [μmoles PNP/min/mg] | Beta-glycosidase specific activity in plant tissue ([9]; Frozen transgenic tobacco leaf tissue (−80° C. for 5 days)) [μmoles PNP/min/mg]
1 | B1 | 4.5 | 0.42 | 0.11 | 27 | 1.6 | 3.6 | 17 | over two | 45 % of the total observed protein | 64.9 | 1.0 μmol of glucose/min | 5.5 | 3.08 μmol of p-nitrophenol/min | 2160 | 28 |  |  | 
2 | B2 |  |  | 0.15 |  |  |  |  |  |  |  |  |  |  |  | 28 | 31 | 62 | 67
